This is an account of results in patent publication US8916149B2, “Preventing and treating sepsis” (University of Rochester, priority 2008, dated 2014).

In one experiment the test system is neutrophil. Particulars: without any protein coatings; cited from earlier work.
In experiment [1] the test system is human neutrophils. Nature of the experiment: Intracellular Ca2+ measurement (Fluo-4). Conditions: 10 nM fMLP. The format is cell-based. On the procedure: 1×10^7 cells/ml of human neutrophils were labeled with […] Fluo-4 AM (Molecular Probes, Eugene, Oreg.) at 37° C. for 30 minutes, then at room temperature for an additional 5 to 10 minutes. After washing twice, cells were resuspended to 4×10^6 cells/ml (6 ml) in F15 and incubated at RT for de-esterification. For measurements, cells (4×10^6) were spun down in a microtube (1 ml), resuspend in 1 ml of F15 at 37° C., transferred to a quartz cuvette containing a fluorometric stir bar and 1 ml of the same buffer at 37° C., and fluorescence signals were measured in the fluorometer.

Another experiment concerns LPS treated mice. Put plainly: Neutrophil recruitment into airspace (BALF) after intranasal LPS. It counts as in vivo, mice (C57BL/6). Conditions: 10 μg/mouse i.v. 2 hours after LPS. The method, then:
Mice (C57BL/6, 6-8 weeks) were anesthetized with avertin and then intranasally administered 30 μg of LPS (Sigma-Aldrich, St. Louis, Mo.). […] Mice were sacrificed 4 hours later and bronchioalveolar lavage was harvested. Cells were fixed with 4% formaldehyde for 20 minutes. Cells were counted using microbeads (Polyscience, Niles, Ill.) by flow cytometry. Cells were stained with Gr-1 APC antibody (eBioscience, San Diego, Calif.) and collected by flow cytometry. Data were analyzed using FlowJo software (Tree Star, Ashland, Oreg.).

Experiment [2] has as its system human neutrophils. Put plainly: Random migration of neutrophils on FN-coated cover glass (live-cell imaging). It counts as cell-based. On the procedure:
Delta T dishes were coated with human FN (50 μg/ml, BD Biosciences, San Jose, Calif.) for overnight at 4° C. and then for 4 h at room temperature. Plates were then rinsed with L-15 media. […] The cells were then added to FN-coated dishes in 1.5 ml of L-15 with 2 mg/ml of glucose. For neutrophil live cell staining, 2 μM Green Cell Tracker CMFDA (5-chloromethylfluorescein diacetate; Molecular Probes, Carlsbad, Calif.) was used. Temperature was maintained at 37° C. throughout the experiment using a FCS2 live-cell imaging chamber (Bioptechs, Butler, Pa.). Images were acquired for 30 to 60 minutes under a 10× objective lens using a Nikon TE-2000U inverted microscope. Phase contrast images were acquired every 5 seconds and fluorescence images every 30 seconds. Cell paths were traced using MetaVue™ imaging software (Molecular Devices Corporation, Downingtown, Pa.).
Random migration was investigated by adding fMLP or IL-8 to media at a final concentration of 10^−8M and analyzed by manually tracing the outline of each cell in selected frames (i.e., at 50 second intervals). The x and y coordinates of each cell were measured using ImageJ software and were corrected so that the starting position was x=0 and y=0.
The time-lapsed images of migrating neutrophils were taken under phase contrast microscopy. Each image was thresholded and binarized based on brightness to define the centroids of the neutrophils. The closest centroids between consecutive images were linked as a trajectory under the assumption that these centroids were made by the same neutrophil. The maximum distance between the closest centroids was also defined to preclude the artifacts due to cells moving into and out of the field of view.

B1: rhAPC: Recombinant human activated protein C obtained from Eli Lilly; FDA-approved drug for severe sepsis (protein)
chain 1: ANSFLEELRHSSLERECIEEICDFEEAKEIFQNVDDTLAFWSKHVDGDQCLVLPLEHPCASLCCGHGTCIDGIGSFSCDCRSGWEGRFCQREVSFLNCSLDNGGCTHYCLEEVGWRRCSCAPGYKLGDDLLQCHPAVKFPCGRPWKRMEKKRSHL
chain 2: LIDGKMTRRGDSPWQVVLLDSKKKLACGAVLIHPSWVLTAAHCMDESKKLLVRLGEYDLRRWEKWELDLDIKEVFVHPNYSKSTTDNDIALLHLAQPATLSQTIVPICLPDSGLAERELNQAGQETLVTGWGYHSSREKEAKRNRTFVLNFIKIPVVPHNECSEVMSNMVSENMLCAGILGDRQDACEGDSGGPMVASFHGTWFLVGLVSWGEGCGLLHNYGVYTKVSRYLDWIHGHIRDKEAPQKSWAP
With B1, the “neutrophil migration through nitrocellulose micropore filter” value in the experiment on neutrophil is given as “inhibited”. Moreover, the “increase in intracellular Ca2+ concentration by fMLP treatment” value with human neutrophils [1] is reported as “had no effect”. Moreover, the “neutrophil recruitment in the BALF” value with LPS treated mice is listed as “significantly reduced”. In addition, the “random migration of neutrophils on FN induced by fMLP” value in the experiment with human neutrophils [2] (10 μg/ml protein, fMLP) is recorded as “dramatically reduced”. For the same molecule, the “neutrophil migration on FN by IL-8” value in the experiment on human neutrophils [2] (rhAPC pre-treatment, IL-8) was “dramatically decreased”.
